In the supplement of paper PMC9732359:
± gives the uncertainty stated by the source.

Assay: protein stability index of a GFP-peptide fusion (yeast GPS) (PSI 1-4); higher = more stable; sorted into four equal gates, so the index is relative within each strain
Summary of the method: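 Tiled yeast protein peptides of 17 residues were each joined downstream of GFP, on plasmids that also express Cherry. The pooled library was maintained in yeast, and mid-log cultures in leucine-free medium were sorted into four equal gates on the GFP/Cherry ratio. Plasmids from every gate were amplified by PCR and sequenced on Illumina, with barcodes linking reads to strains. The protein stability index of a peptide is its gate-number-weighted read frequency summed over the gates.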

In the case of QNTIDDTEMKMKSLLTE [YIL149C/MLP2], the protein stability index (doa10∆) is reported as 3.25 ± 0.066, the protein stability index (pdr5∆) is reported as 3.39 ± 0.054 and the protein stability index (san1∆) is reported as 3.17 ± 0.067. The protein stability index (ubr1∆) was 3.19 ± 0.05.
For QNYLKTYNEDIPVEILV [PRE9], the protein stability index (doa10∆) was 2.79 ± 0.066, the protein stability index (pdr5∆) was 2.05 ± 0.084 and the protein stability index (san1∆) was 2.76 ± 0.091. The protein stability index (ubr1∆) was 2.38 ± 0.071.
QPEDLEPAEANEENDLD [RPB2] gave a protein stability index (doa10∆) of 3.35 ± 0.17, a protein stability index (pdr5∆) of 3.15 ± 0.19 and a protein stability index (san1∆) of 3.21 ± 0.13. The protein stability index (ubr1∆) was 3.42 ± 0.16.
In the case of QPIFVAHTAGRYANKRF [RPS5], the protein stability index (doa10∆) is reported as 1.55 ± 0.076, the protein stability index (pdr5∆) is reported as 2.03 ± 0.072 and the protein stability index (san1∆) is reported as 1.61 ± 0.12. The protein stability index (ubr1∆) was 1.78 ± 0.069.
QPQALQKSGRPVKSIRA [RPO21] showed a protein stability index (doa10∆) of 2.62 ± 0.065, a protein stability index (pdr5∆) of 2.29 ± 0.069 and a protein stability index (san1∆) of 2.36 ± 0.083. It also gave a protein stability index (ubr1∆) of 2.17 ± 0.037.
Sequence QPSSSRYNGGNDNIGAN [SMB1] has a protein stability index (doa10∆) of 3.2 ± 0.091, a protein stability index (pdr5∆) of 3.49 ± 0.08 and a protein stability index (san1∆) of 3.23 ± 0.049. The protein stability index (ubr1∆) was 3.37 ± 0.075.
Sequence QPVLEKPLKKGSADIGA [SIR4] has a protein stability index (doa10∆) of 3.16 ± 0.078, a protein stability index (pdr5∆) of 3.1 ± 0.061 and a protein stability index (san1∆) of 3.08 ± 0.042. For the same sequence, the protein stability index (ubr1∆) was 2.94 ± 0.055.
Sequence QQQQQQHIYPSSTPGVA [GAL11] has a protein stability index (doa10∆) of 2.728 ± 0.022, a protein stability index (pdr5∆) of 2.78 ± 0.029 and a protein stability index (san1∆) of 2.664 ± 0.023. The protein stability index (ubr1∆) was 2.664 ± 0.025.
For QQQQQQQQQQQQQQQQQ [GAL11], the protein stability index (doa10∆) was 2.57 ± 0.032, the protein stability index (pdr5∆) was 2.78 ± 0.028 and the protein stability index (san1∆) was 2.661 ± 0.026. The protein stability index (ubr1∆) was 2.903 ± 0.023.
For QQQQQQQVPPLPDELTL [DLS1], the protein stability index (doa10∆) was 2.63 ± 0.035, the protein stability index (pdr5∆) was 2.72 ± 0.038 and the protein stability index (san1∆) was 2.727 ± 0.027. It also gave a protein stability index (ubr1∆) of 2.689 ± 0.025.
In the case of QQQSADHDDSTDDADDH [NSL1], the protein stability index (doa10∆) is reported as 2.91 ± 0.059, the protein stability index (pdr5∆) is reported as 2.91 ± 0.064 and the protein stability index (san1∆) is reported as 2.77 ± 0.057. For the same sequence, the protein stability index (ubr1∆) was 3.01 ± 0.037.
QQQTSTFNSKPVRTIVP [SIR4] showed a protein stability index (doa10∆) of 2.38 ± 0.032, a protein stability index (pdr5∆) of 2.77 ± 0.036 and a protein stability index (san1∆) of 2.6 ± 0.039. For the same sequence, the protein stability index (ubr1∆) was 2.58 ± 0.028.
For QQQVLNKLRQQAIAKNN [SNF5], the protein stability index (doa10∆) was 1.13 ± 0.066, the protein stability index (pdr5∆) was 1.2 ± 0.072 and the protein stability index (san1∆) was 1.11 ± 0.13. It also gave a protein stability index (ubr1∆) of 1.05 ± 0.052.
Work on QQRKQKKNRDKKIFGTG [RPS24A] yielded a protein stability index (doa10∆) of 3.17 ± 0.093, a protein stability index (pdr5∆) of 3.14 ± 0.055 and a protein stability index (san1∆) of 3.25 ± 0.035. The protein stability index (ubr1∆) was 3.06 ± 0.067.
With QQTAQTQLEQQRQLLVQ [SNF5] the protein stability index (doa10∆) was 3.12 ± 0.12, the protein stability index (pdr5∆) was 3.15 ± 0.14 and the protein stability index (ubr1∆) was 2.49 ± 0.072.
In the case of QQTEKLNPQVADINKNF [RPN2], the protein stability index (doa10∆) is reported as 1.91 ± 0.066, the protein stability index (pdr5∆) is reported as 2.42 ± 0.058 and the protein stability index (san1∆) is reported as 2.44 ± 0.07. For the same sequence, the protein stability index (ubr1∆) was 2.49 ± 0.055.
For QRDAVTLFCCLLRSRLA [RPO21], the protein stability index (doa10∆) was 1.78 ± 0.045, the protein stability index (pdr5∆) was 1.92 ± 0.044 and the protein stability index (san1∆) was 1.85 ± 0.057. The protein stability index (ubr1∆) was 1.98 ± 0.041.
QRKKQIAFPQRKYAIKA [RPL35A] gave a protein stability index (doa10∆) of 1.25 ± 0.059, a protein stability index (pdr5∆) of 1.51 ± 0.078 and a protein stability index (san1∆) of 1.1 ± 0.17. The protein stability index (ubr1∆) was 1.23 ± 0.062.
QRKNGVTNSPLFQTIEK [ECM29] showed a protein stability index (doa10∆) of 3.29 ± 0.16, a protein stability index (pdr5∆) of 3.1 ± 0.14 and a protein stability index (san1∆) of 2.19 ± 0.28. For the same sequence, the protein stability index (ubr1∆) was 3.11 ± 0.086.
